A short description of this series: soluble on expression in E. coli; label from the status in PepcDB or PDB records.
“MTNDYQQLNYLVETDDEADIIIANLVKQLNELKEILLSLDNQDLEINQVNHRTTVHNTSSNTSNNSTSNNIADGNYNSNFFHNFSKETLQTQAKRGFLLLERCSLVGLQQLELEYLNVLGRSFESHQDKINFLVNLRDLTNDHLLDTEKIVSTLEQIFNVIGGTEYTPILNSFFNQSLNDPDPIQREIGLKQFVANLRQRFKTLLQKTNNSIQQLEAEIQIPTTHIKSDEVMFGPPDMNERLVLNDSETDAILRSIEAELESALQNKKQVVVTAVPPIAANLATDSISQETLEHNLNNTETVNTTTVTVTSASETQVRKPQISLRPIFQGNFPKRLSREDIQRYAHQLQELEQSNEG”: the “soluble on expression in E. coli” value is “soluble”.
The entry for “MIFINREREMKILEKEWENRPSFVVLYGRRRVGKTRLLREFSKAKKTFFFVFPEAIKEIQMREFKDAMADFLGDEFIRKLKTDNWFDLLKYLAEEVDDCLIVLDEFTYAVKSDRKILSDLQRVWDIILSEKKVMLVLSAPLLGMMWDEVLSHASPLYGRRTRSMHLKPLNYPDALNFFSDWEFGIRAYMLVGGIPSYLKLASRYNTIEDFLREEFLSDYGFFYDEPYVLLSEELRELRTYFSILIAIAEGNRRLERIANFVGLPARSIYPYVETLMRLGFIEKESPILGSRKVSLYRIKDPMLLTWLTLTYPQMAEISSGTAKLDKLYRVYSIRFEELAKEFLTLFRPIEFKTLGRWWYRGEEIDIVAIDEDIANLIEVKWMDLRKKEALRVLQELEEKAKKVNFSGKINLGIVARNVEKKEELRKEGYLVWDLEDILEAAGNSEREKLLEHHHHHH” is “not soluble”; for “GTDDEEKDNNGQGSVSVETNYLPIADPYVMFYNNKYYAYGTGGTTAGEGFACFSSDDLKNWKREGQALSATDSYGTWGFWAPEVYYVESKKKFYLFYSAEEHICVATSTTPEGPFRQEVKQPIWSEKSIDTSLFIDDDGTPYLYFVRFTDGNVIWVAQMTDDLMSIKTETLNQCIKAEVSWELLQGKVAEGPSLLKKNGVYYLIYSANHYENKGYGVGYATSDTPMGPWVKYSKNPLLQGDAATGLVGTGHGAPFQCKDGSWKYIFHAHWSAAEIQPRTSYIKDFAISDQGVVTISGTVIKPRVLK” it is “soluble”.
Consider “MLQVLGRLINILFPLLRFILGIWWEKLRGKDPTVSRAKAIQLRELLTNLGPTYIKVGQALSTRPDLVPPVFLDELTTLQDQLPSFPNEVAYRFIEEELGAPAEEIYAELEHHHHHH”, for which the “soluble on expression in E. coli” value is “not soluble”.
As to “GLTYDLNGNISTYRNEILELPETVAANGKFGGNGVKSVVGHTYGAQVGYIADGIFKSQDEVDNHATQEGAAVGRIRYRDIDHNGVIDERDQNWIYDPTPSFSYGLNIYLEYKNFDLTMFWQGVQGVDIISDVKKKSDFWSASNVGFLNKGTRLLNAWSPTNPNSDIPALTRSDTNNEQRVSTYFVENGSFLKLRNIQLGYTVPAVISKKMRMDRLRFYCSAQNLLTIKSKNFTGEDPENPNFSYPIPVNITFGLNIGF”, the “soluble on expression in E. coli” value was “not soluble”.
Regarding “MNLLQRALVFTGGHISRYQAVIAVNSVGKNARFYSTTDDNMAAPEESVVAKDEMKRFMVECMTKVGATESHATQLALVLLEGDIRGHYSHGLNRLDMYVRDIEQNVCKGDGEPIILKEKAGTAWVDGNNLLGPVVGNFCMDLAIEKAKNAGIGWVVAKGSNHYGIAGWYALRAMKKGMLGMSMTNTSPISFPTRSAVPALGTNPISLAAPGTGDDSFVLDMASTTVAIGKVELAARKENPVPLSWGVGEGGKETTDPTKVLYGGGLLPLGGVEVSGGYKGYGLSSMIEIFCGILAGAHWGPHVRKWMSTKSEADLGQCFVAIDPEAFAPGFADRLQDFMQTMRALPTSSPSFKVEVAGDMERRHEALVEQLGGIPYHKNQITFVNDLAAKLGVKTVDLVQ”, the “soluble on expression in E. coli” value was “not soluble”.
The entry for “MPSLFSEDKLPALTYHCSVELNGNIYIFGGLMPCYSYEEDAPMLNDFFVDGIKNLPPPLLPQVINNPSMVNNPHLYVASIPSCRFSKPKMGGYIPPPLLCVQGSKLTDRHIFFYGGFEIRTETRGDENGKYHLKKRLYVNNTGYILDIMSFKF” is “not soluble”; for “NPSTTKAPLADYLAHLPLAEEERERLGESASFSELHARLAGAEGAAADAGGDPALASVRARLQLGTPELDDAEMFGVDAQGRTFLKISPPIRRTKVIPEPWRTNILVRGWRRLTGRSNPPKPKRALPRARWQ” it is “not soluble”.
The entry for “MVILLPMVTFTMAYLIVDVPKPGDIRTNQVSTILASDGSEIAKIVPPEGNRVDVNLSQVPMHVRQAVIAAEDRNFYSNPGFSFTGFARAVKNNLFGGDLQGGSTITQQYVKNALVGSAQHGWSGLMRKAKELVIATKMSGEWSKDDVLQAYLNIIYFGRGAYGISAASKAYFDKPVEQLTVAEGALLAALIRRPSTLDPAVDPEGAHARWNWVLDGMVETKALSPNDRAAQVFPETVPPDLARAENQTKGPNGLIERQVTRELLELFNIDEQTLNTQGLVVTTTIDPQAQRAAEKAVAKYLDGQDPDMRAAVVSIDPHNGAVRAYYGGDNANGFDFAQAGLQTGSSFKVFALVAALEQGIGLGYQVDSSPLTVDGIKITNVEGEGCGTCNIAEALKMSLNTSYYRLMLKLNGGPQAVADAAHQAGIASSFPGVAHTLSEDGKGGPPNNGIVLGQYQTRVIDMASAYATLAASGIYHPPHFVQKVVSANGQVLFDASTADNTGDQRIPKAVADNVTAAMEPIAGYSRGHNLAGGRDSAAKTGTTQFGDTTANKDAWMVGYTPSLSTAVWVGTVKGDEPLVTASGAAIYGSGLPSDIWKATMDGALKGTSNETFPKPTEVGGYAGVPPPPPPPEVPPSETVIQPTVEIAPGITIPIGPPTTITLAPPPPAPPAATPTPPP” is “soluble”.
As for “MGSDKIHHHHHHMGLAFEHVTLGQRVLFGTGTAAPSLASEVARLGARRVMVITSNRARETAYRIAADVEVALWHHDVAMHVPIETARKARAAAGEHGIDLLVCVGGGSTTGLAKAIAMTLRLPIIAVPTTYAGSEATNVWGLTEASRKTTGVDDAVLPVTVIYDAALTLALPVAMSVASGLNGIAHCIDSMWAPGADPINAALGAEGIRALSHGLPLIAEDPAGTEGREQALYGAYLSAVAFASAGSGLHHKICHVLGGAFNLPHAQVHATVLPYVLAFNAPYASDSEARIAAAFGTADALTGLQELRNRLDAPKALSDYGLTADGAAEAAAVVQPTVPASNPRPVTTENLTRLLQAALSGEDPRCLLEH”, the “soluble on expression in E. coli” value was “not soluble”.
The entry for “MGSDKIHHHHHHMPRQLPPLYALRAFEAAARLSSFTRAGEELSITQSAISRHIRTLEEHFACRLFVRSGRSLQLTEAGRVLLPGVREGFAAFERACETLCGEDDILRMKAPSTLTMRWLLACLSRFRHLQPGNEVQLTSAWMDVDHVDFNQEPFDCAVLLSDGVFPPEWEVRKLFPELLIPVGAPDLLDEEPWDVCRLASVELLHPTVDKRDWREWLERMGLGDQVSLKGGQVFDTLELGMIAAARGYGISMGDLLMVAEDVAQKRLSLPWPTAVPSGMDYYLVWPRTRRGGERLRRLSAFLEGEVAAMDLPDVEILPRL” is “not soluble”; for “MVDLGFSLYPERYDVTKSKAYIDLCHSYGAKRLFMSLLQLAPADHQMFHCYAELIAYANQLGIRVIADVSPSFISQAGWSDQLIERAHAFGLAGLRLDEALPLAEIVTLTRNPFGLKIELNMSTDKQLLMSLLATDAERSNIIGCHNFYPHEFTGLSWQHFKDMSRFYHEHDIETAAFITAQSASEGPWLLAEGLPTVEDHRHLPIGLQVELMKAIGTIDNILISNQFISEEELAACTQALARPVTTIKVRPIIDLTEVEEQIIGYPHCYRGDVSDYVIRSTMPRLVYAQESIAPRDQSKEVKRGSIIIDNDRYHRYKGELQIALKNFTVSSKANVVAEVREDYLSLLDDLRPWQEFCLEIAPS” it is “not soluble”.
Take “MVTEDVRATADDIADMEIRGAATIARAAADALESQATDSDADSPAAFRAELRAAARHLRDTRPTAVSLPNALRYVLGNTDGETVAALRASVTDAADAFRQQLDRAQDDLGAIGANRLRDGDTVMTHCHSTDALACVKAALDDGKHIEAVVKETRPRKQGHITADQLREWGVPVTLIVDNAGRRYLDAVDHVLVGADSIAADGSVINKIGTSMLAVVARERGVPVMVAAQTLKLHPDTLTGNTVEIEMRDETEVLAAADRHQLGAPDVENPAFDVTPPRYVDAIVTERGQFPPESIVTLMRELYGDGTTEPWAEDLEHHHHHH”: the “soluble on expression in E. coli” value is reported as “not soluble”.
The result for “MTKDQNGTWEMESNENFEGYMKALDIDFATRKIAVRLTQTKIIVQDGDNFKTKTNSTFRNYDLDFTVGVEFDEHTKGLDGRNVKTLVTWEGNTLVCVQKGEKENRGWKQWVEGDKLYLELTCGDQVCRQVFKKK” reads “soluble”.
In the case of “TMEIPINRTYSCFLEGPEAPKTPACQAAKQAGGTQAMYDWNGINQNPSGDNHQAVVPDGTLCGGGKAEFKGFNLAREDWRTTNIVPDANGNYEFIYKATAPHATKYFKFYVTKNGWNPTQALKWSDLELFGTVNGNPQQDAGKRYHMTLKLPQGKTGKHIIFNVWKRSDSEEAFYSCSDVNFGG”, the “soluble on expression in E. coli” value is “not soluble”.
The result for “MNNSINHKFHHISRAEYQELLAVSRGDAVADYIIDNVSILDLINGGEISGPIVIKGRYIAGVGAEYTDAPALQRIDAHGATAVPGFIDAHLHIESSMMTPVTFETATLPRGLTTVICDPHEIVNVMGEAGFAWFARCAEQARQNQYLQVSSCVPALEGCDVNGASFTLEQMLAWRDHPQVTGLAEMMDYPGVISGQNALLDKLDAFRHLTLDGHCPGLGGKELNAYIAAGIENCHESYQLEEGRRKLQLGMSLMIREGSAARNLNALAPLINEFNSPQCMLCTDDRNPWEIAHEGHIDALIRRLIEQHNVPLHVAYRVASWSTARHFGLNHLGLLAPGKQADIVLLSDARKVTVQQVLVKGEPIDAQTLQAEESAKLAQSAPPYGNTIARQPVSASDFALQFTPGKRYRVIDVIHNELITHSHSSVYSENGFERNDVCFIAVLERYGQRLAPACGLLGGFGLNEGALAATVSHDSHNIVVIGRSAEEMALAVNQVIQDGGGLCVVRNGQVQSHLPLPIAGLMSTDTAQSLAEQIDALKAAARECGPLPDEPFIQMAFLSLPVIPALKLTSQGLFDGEKFAFTTLEVTE” reads “not soluble”; that for “GMGQQESTLGGAAGEPRSRGHAAGTSGGPGDHLHATPGMFVQHSTAIFSDRYKGQRVLGKGSFGEVILCKDKITGQECAVKVISKRQVKQKTDKESLLREVQLLKQLDHPNIMKLYEFFEDKGYFYLVGEVYTGGELFDEIISRKRFSEVDAARIIRQVLSGITYMHKNKIVHRDLKPENLLLESKSKDANIRIIDFGLSTHFEASKKMKDKIGTAYYIAPEVLHGTYDEKCDVWSTGVILYILLSGCPPFNGANEYDILKKVEKGKYTFELPQWKKVSESAKDLIRKMLTYVPSMRISARDALDHEWIQTYTKEQISVDVPSLDNAILNIRQFQGTQKLAQAALLYMGSKLTSQDETKELTAIFHKMDKNGDGQLDRAELIEGYKELMRMKGQDASMLDASAVEHEVDQVLDAVDFDKNGYIEYSEFVTVAMDRKTLLSRERLERAFRMFDSDNSGKISSTELATIFGVSDVDSETWKSVLSEVDKNNDGEVDFDEFQQMLLKLCGN”, “soluble”; that for “MKIAYLGPKGSFSHHVVQTAFPHEELQAFANITDVIKAYEQGLVNYSVVPVENSIEGSVHETLDYLFHQAHIQAVAEIVQPIHQQLMVVPGHTKIEKIFSHPQALAQGKKFIDEQYPEAQIEVTASTAYAARFISEHPDQPFAAVAPRSSAEEYGLELIAEDIQEMEANFTRFWVLGAEKP”, “not soluble”.
The entry for “MTKEERISRATELFKSGYNCSQSVVAAFADMYGFTEEQALRMAASFGGGIGRMRETCGAACGMFLLAGLEKGAIDGADREGKAANYALVQELAAEFKKRNGSLNCGELLGLKKKAPVSSEPEARTEQYYAKRPCSKMVEEAARIWAEYLEKEKK” is “not soluble”.
The result for “MELASNFDEFISTQSIEEGLDFGCNLLSSALRLQGDTDPAQAQVLLQELTQYLSLRYVGEHGLALEYLAGLGHQCSPDNYRHSQFWGQLKWIANEIGLSDTALNSLALPPGVLRSGGA” reads “not soluble”.

Source of the values: the DeepSol protein solubility set.
